PMC7382501 (Nature Communications, 2020)

Target: the molecule itself
Assay: crystal structure

B1: FasRΔ33, truncated FasR lacking the first 33 amino acids (domain or fragment)
chain: RLPRDERRGQLLVVASDVFVDRGYHAAGMDEIADRAGVSKPVLYQHFSSKLELYLAVLHRHVENLVSGVHQALSTTTDNRQRLHVAVQAFFDFIEHDSQGYRLIFENDFVTEPEVAAQVRVATESCIDAVFALISADSGLDPHRARMIAVGLVGMSVDCARYWLDADKPISKSDAVEGTVQFAWGGLSHVPLTRS
Q: B1 was tested. Which “stoichiometry N” value did it give?
A: Its value is 2.
